Assay results as given in patent publication US20260258115A1 (MAPP BIOPHARMACEUTICAL, published 2026).
Substitutions are numbered along the chain they refer to.

B1: ADI-21081 (antibody, V domains shown)
VH: EVQLLESGGGLVKPGGSLRLSCAASRFAFSNYYMTWIRQAPGKGLEWISNISGGSTFTNYADSVKGRFTISRDNAKNSVHLQMNSLRAEDTAVYYCVREASVAAGTPEGFDIWGQGTMVTVSS
VL: QSVLTQPPSVSGAPGQRVIISCTGSSSNIGAGYDVNWYQQLPGTAPKLLMYGNRNRASGVPDRFSGSKSGTSASLAITGLQAEDEADYYCHSYDSSLGGSVFGGGTKLTVL
notes: also called Ab 326
B2: ADI-21072 (antibody, V domains shown)
VH: QVQLVQSGGGLVKPGGSLRLSCEASGFNFRSYHMSWVRQAPGKGLEWVSSITAGSSYINYADSVKGRFTISRDNAKNSVFLQMNSLSAEDTAVYYCAREGLNMGVGGTWFDPWGQGTLVTVSS
VL: QAVVTQEPSVSGAPGQRVTISCTGSSSNIGAGYDVHWYQQLPGTAPKLLIYGNNNRPSGVPDRFSGSKSATSASLAITGLQADDEADYYCQSYDRSLSGSWVFGTGTKVTVL
B3: ADI-21077 (antibody, V domains shown)
VH: QVQLVESGGGLVKPGGSLRLSCVVSGFTFRDYYMSWIRQAPGKGLEWISYISPSSTYTNYADSVRGRFTISRDNAENSLYLQMNSLRAEDTAVYYCARVNIAATGAGGVFLDYWGQGTTVTVSS
VL: B2 VL with A2P, V4L, E7P, T23A, N54I, A70G, D83E, R95S, W101Y
B4: ADI-21064 (antibody, V domains shown)
VH: EVQLVESGGEVKKPGASVKVSCKASGYIFSNHGVSWVRQAPGQGLEWMGWISAYNGNAIYAQNLQGRVTLTTDTSTSTAYMELTSLTSDDTAIYYCARESGATAAAVMDYWGQGTLVTVSS
VL: DIVLTQTPLSLPVILGQPASISCRSSQSLVYSDGNTYLTWFQQRPGQSPRRLIYKVSNRDSGVPDRFSGSGSDTDFTLKISRVEAEDVGVYYCMQGIDWPRTFGQGTKVDIK
B5: ADI-21075 (antibody, V domains shown)
VH: EVQLVESGGGLVKPGGSLRLSCAASGFSFSNYYMSWVRQAPGKGLEWISYISGGSTYANLADSVKGRFTISRDNTKNSMYLQMTSLRPDDTAVYYCARIHGTHGPFYFDYWGQGTLVTVSS
VL: QSVLTQPPSVSGAPGQRVTISCTGSSSNIGAGYDVHWYQQLPGTAPKLLIHANSNRPSGVPDRFSGSKSGTSASLAITGLQAEDEADYYCQSYDNSLNAYYVFGTGTKLTVL
notes: also called Ab 320
B6: ADI-21079 (antibody, V domains shown)
VH: EVQLLESGGGLVKPGGSLRLSCAASGFTFSDYYMSWIRQAPGKGLEWVSNISGGSTYTNYADSVKGRFTISRDNAKNSLYLQMNSLRAEDTAVYYCAREAYGSGNYYNPNWLDPWGQGTLVTVSS
VL: B1 VL with I19T, N36H, M50I, A57P, H91Q, G98S
B7: ADI-41448 (antibody, V domains shown)
VH: TVQLVESGAEVKSPGSSVRVSCQASGGSSNSYAISWVRQAPGQGLEWMGMISPLFGTTRFSQRFQGRVTITADKSTSTAYMELSSLNSEDTALYYCARGRFDFWSGPTRFYYTMDVWGQGTMVTVSS
VL: QSVLIQPASVSGSPGQSITISCSGTSSDIGGYNYVSWYQQHPGKAPKLLISDVTDRPSGISDRFSGSKSGTSASLTISGLQADDEADYYCTSYTTSSTWVFGGGTKLTVL
notes: IgG1
B8: ADI-41453 (antibody, V domains shown)
VH: QVQLVQSGAEVRKPGASVKVSCKASGYTFSIYDMNWVRQAPGQGLEWMGWMNPNSGNTGYAQKFQGRVTMTGDTSISTAYMELSSLTSEDTAVYYCAVMYGDYPGYWGQGSLVTVSS
VL: SYELTQPLSVSVALGQTARITCGGNNIGSKSVHWYQQKPGQAPVLVIYRDAKRPSGIPERFSGSNSGNTATLTISGAQAGDEADYYCQVWDSNAWIFGGRTKLTVL
notes: IgG1; also called Ab 737
B9: ADI-41451 (antibody, V domains shown)
VH: EVQLVESGGGLVQPGGSLRLSCAAAGFTFNNYEMHWVRQAPGKGLEWVSCVTSSGTATYYADSVKGRFTVSRDNAKKSLQLQMNSLRAEDTAVYYCARELYLGEDYYYGLDVWGQGTTVTVSS
VL: SYELTQPPSVSVSPGQTASISCSGDKLRNKHTCWYQHKSGQSPVLLIYQDNRRPSGIPDRLSGSKSGTTATLTISWTQAMDEAEYYCQAWDSNSAVIFGGGTKLTVL
notes: IgG1; also called Ab 735
B10: ADI-41816 (antibody, V domains shown)
VH: QVQLVQSGAEVKKPGASVKVSCEASGYTFTDSYIHWVRQAPGQGLEWMGWINPNSGGTNYAQKFQGRVTMTRDTSTSTAFIELSRLRSDDTAVYYSARGVRQQWLVNTGDPDYYFDFWGQGTLVTVSS
VL: SYVLTQPPSVSVSPGQTASITCSGDKLGDKYSCWYQQKPGQSPVLVIYQDYKRPSGIPERFSGSNSGNTATLTISGTQAMDEADYYCQAWDRNAGVFGTGTKLTVL
B11: ADI-41829 (antibody, V domains shown)
VH: EVQLVESGGGLVKPGGSLRLSCAASGFTSSGYNMNWVRQAPGKGLEWVSSISGSSSYIHYADSVKGRFTISRDNAKNSLYLQMNSLRAEDTAVYYCATVGALPGHFDNWGQGTLVTVSS
VL: QAVVTQEPSVSGAPGQRVTISCTGSSSNIGAGYDVHWYQQLPGTAPKLLIYDNTNRPSGVPDRFSGSKSGTSASLAITGLQAEDEADYYCQSYDSRLTYVFGTGTKVTVL
B12: ADI-41840 (antibody, V domains shown)
VH: QVQLVQSGAEVKKPGSSVKVSCKASGDTFSGYAIYWVRQAPGRGLELMGGIIPILGTSSYAQRFLGRTSFTADESTSTAYMDLSSLTSADTAMYYCARKRVTVPVPFDSWGQGTLVTVSS
VL: EIVMTQSPATLSVSPGERATLSCRASQSVSSNLAWYQQKLGQAPRLLIYGASTRATDIPARFSGSGSGTEFTLTISSLQSEDFVVYYCQQYNNWPWTFGQGTKVEIK
B13: ADI-41830 (antibody, V domains shown)
VH: QVQLVQSGPAVKKPGASVKVSCKASGYIFTSYGVSWVRQAPGQGLEWMGWISGYNGNTDYAQKFQGRVTLTVDSSTGTVYMDLRSLRSDDTAIYYCARAPPLPGQVYDGAGSYLLHGYWGQGTLVTVSS
VL: not shown
B14: ADI-41834 (antibody, V domains shown)
VH: EVQLLESGGRLVQPGRSLRLSCAASGFTVSGSYMSWVRQAPGKGLEWVSVIYIDGGTKYADSVKGRFTISRDNSKNTVYLQMNSLRAEDTAVYYCARDSSLWYRGGDYWGQGTLVTVSS
VL: DIQMTQSPSSLSASVGDRVTITCQANHDISNYLNWYQQKPGKAPKLLIYDASILEAGVPSRFSGSGSGTHFTFTISSLQPEDIATYYCQQFDFRALTFGGGTKVEIK
B15: ADI-41835 (antibody, V domains shown)
VH: EVQLLESGGGLVQPGGSLRLSCAASGFTFSSYAMNWVRQAPGKGLEWVSIISDSGGSTYYADSVKGRFTISRDNSKNTLYLQMNSLRAEDTAVYYCAKATPLKWELLIGSTPGYYFDYWGQGTTVTVSS
VL: SYELTQLPSVSVSPGQTASITCSGDKLGDKYACWYQQKPGQSPVVIMYQDNKRPSGIPERFSGSNSGNTATLTISGTQAMDEADYYCQAWDSSTGVFGGGTKVTVL
B16: ADI-41832 (antibody, V domains shown)
VH: EVQLVESGGGLVQPGGSLRLSCAASGFTFSKYAMNWVRQAPGKGLEWVSSISDSGDSRYYADSVKGRFTISRDSSKNTLNLQMNSLRAEDTAVYYCAKAGWELFSPQGAFDLWGQGTMVTVSS
VL: EIVMTQSPGTLSLSPGERATLSCRASQSVSSSHLAWYQQKPGQAPRLLIYGASSRDSGIPDRFSGSGSGTDFTLSISRLEPEDFAVYYCQHYGNSPYTFGQGTKVDIK
B17: ADI-41831 (antibody, V domains shown)
VH: EVQLLESGGGLVKPGGSLRLSCAASGFTFSSYAMHWVRQPPGKGLEWVSSISASSSFINYADSVKGRFTISRDGARNSLYLQMNSLRAEDTAVYYCVREDYDSSGYGLHWFDPWGQGTTVTVSS
VL: SYVLTQPPSVSGAPGQRVTISCTGSSSNIGAGYDVHWYQQFPGTAPKLLMYGNTNRPSGVPDRFSGSKSGTSASLAITGLQAEDEADYYCQSYDRSLSGWVFGGGTKLTVL
B18: ADI-43640 (antibody, V domains shown)
VH: QVQLVQSGGGLVKPGGSLRLSCAASGFTFSSYSMNWVRQAPGKGLEWVSSISSSSSYIYYADSVKGRFTISRDNAKNSLYLQMNSLRAEDTAVYYCAREGRDGYNYNFDYWGQGTLVTVSS
VL: B17 VL with S1Q, Y2S, L4V, F41L, M50I, T54S, R95S, W100V
B19: ADI-21065 (antibody, V domains shown)
VH: EVQLLESGGGLVQPGGSLRLSCAASGFTFSSYAMNWVRQAPGKGLEWVSGISGSGESTYYADSVKGRFTISRDSSKNTVYLQMNSLRADDTAVYYCAKDQGYGVVVPAATRALPPRRYGMDVWGQGTTVTVSS
VL: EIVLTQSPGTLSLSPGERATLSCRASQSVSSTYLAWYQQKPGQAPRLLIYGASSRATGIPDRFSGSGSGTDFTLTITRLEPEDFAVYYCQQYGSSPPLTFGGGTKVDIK

Target: RSV F on recombinant mKate-RSV A2 virus (Respiratory syncytial virus A2, UniProt P03420 26-574)
Assay: cell-based or functional assay

Binder | Neut IC50 (ug/ml) subtype A
B1 | 0.1 µg/mL
B2 | 0.04 µg/mL
B3 | 0.06 µg/mL
B4 | 0.03 µg/mL
B5 | 0.03 µg/mL
B6 | 0.2 µg/mL

Target: RSV F on recombinant mKate-RSV B 18537 virus (Respiratory syncytial virus B 18537, UniProt P13843 26-574)
Assay: cell-based or functional assay

Binder | Neut IC50 (ug/ml) subtype B
B1 | 0.32 µg/mL
B2 | 0.33 µg/mL
B3 | 0.06 µg/mL
B4 | 0.12 µg/mL
B5 | 0.48 µg/mL
B6 | 0.29 µg/mL

Target: RSV fusion glycoprotein (RSV F) on RSV-A2 virus (respiratory syncytial virus, UniProt P03420 26-574)
Assay: cell-based or functional assay

Binder | Neutralization IC50 (RSV subtype A)
B7 | > 25 µg/mL
B8 | > 25 µg/mL
B9 | 0.84 µg/mL

Target: RSV F on RSV subtype A virus (RSV-A2) (Respiratory Syncytial Virus, subtype A, …, UniProt P03420 26-574)
Assay: cell-based or functional assay

Binder | Neutralization IC50 (RSV subtype A)
B10 | 0.91 µg/mL
B11 | 0.12 µg/mL
B12 | > 25 µg/mL
B13 | 0.12 µg/mL
B14 | 0.07 µg/mL
B15 | 0.45 µg/mL
B16 | 0.19 µg/mL
B17 | 5.21 µg/mL
B18 | > 25 µg/mL

Target: T1, RSV postfusion F, subtype B (postF trimer) (Respiratory syncytial virus subtype B, UniProt P13843 26-513)
T1 construct: also called Postfusion subtype B
Assay: BLI, IgG apparent affinity

Binder | binding result
B1 | no binding
B2 | no binding
B3 | no binding
B19 | no binding
B4 | no binding
B5 | no binding
B6 | no binding

Target: RSV prefusion F (preF), DS-Cav1 (respiratory syncytial virus, UniProt P03420 26-513)
Assay: BLI, IgG on sensor, 100 nM antigen

Binder | Kd
B7 | 2.75 nM
B8 | 2.17 nM
B9 | 1.82 nM

Target: RSV postfusion F (postF), F deltaFP (respiratory syncytial virus, UniProt P03420 26-513)
Assay: BLI, IgG on sensor, 100 nM antigen

Binder | Kd
B7 | 0.428 nM
B8 | 0.403 nM
B9 | 1.67 nM
